Assay results reported in PMC2647316 (Nucleic Acids Research, 2008).
Residue numbers refer to the chain shown, from its start.

How the values were obtained:
Assay in all cases: SPR
[1] = target: T1, GkDnaC replicative helicase WT (Geobacillus kaustophilus HTA426, UniProt Q5KU75 1-454)
T1 sequence: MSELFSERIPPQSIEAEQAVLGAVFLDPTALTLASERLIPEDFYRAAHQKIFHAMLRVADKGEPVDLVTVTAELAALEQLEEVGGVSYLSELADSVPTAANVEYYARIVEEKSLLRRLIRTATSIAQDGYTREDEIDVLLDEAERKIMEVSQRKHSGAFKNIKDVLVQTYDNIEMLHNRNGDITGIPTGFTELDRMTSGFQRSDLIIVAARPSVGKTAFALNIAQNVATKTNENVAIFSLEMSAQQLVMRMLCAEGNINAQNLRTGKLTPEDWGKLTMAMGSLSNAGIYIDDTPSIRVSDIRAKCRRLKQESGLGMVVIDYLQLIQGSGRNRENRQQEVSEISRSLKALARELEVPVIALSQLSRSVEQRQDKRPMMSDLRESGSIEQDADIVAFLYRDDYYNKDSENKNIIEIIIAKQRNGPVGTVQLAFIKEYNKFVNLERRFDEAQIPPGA

GkDnaC R330A = target: T2, GkDnaC R330A (Geobacillus kaustophilus HTA426, UniProt Q5KU75 1-454, R330A)
T2 sequence: T1 sequence with R330A

[2] = target: T3, GkDnaC R145K146A double mutant (Geobacillus kaustophilus HTA426, UniProt Q5KU75 1-454, R145A;K146A)
T3 sequence: T1 sequence with R145A, K146A

GkDnaC K50A = target: T4, GkDnaC K50A (Geobacillus kaustophilus HTA426, UniProt Q5KU75 1-454, K50A)
T4 sequence: T1 sequence with K50A

Binder: TTTTTTTTTTTTTTTTTTTTTTTTTTTTTT (ssDNA) [5'Bio-(dT)30]
- Kd [1]: 0.0469 µM
- Kd (GkDnaC R330A): 17.8 µM
- Kd [2]: 27 µM
- Kd (GkDnaC K50A): 1.41 µM
